Measurements as given in US20250019437A1.

How the values were obtained:
[1] = target: T1, human TREM2 (triggering receptor expressed on myeloid cells 2) (human) (UniProt Q9NZC2); test: 1st screen, 10 nM Ab
T1 sequence (looked up): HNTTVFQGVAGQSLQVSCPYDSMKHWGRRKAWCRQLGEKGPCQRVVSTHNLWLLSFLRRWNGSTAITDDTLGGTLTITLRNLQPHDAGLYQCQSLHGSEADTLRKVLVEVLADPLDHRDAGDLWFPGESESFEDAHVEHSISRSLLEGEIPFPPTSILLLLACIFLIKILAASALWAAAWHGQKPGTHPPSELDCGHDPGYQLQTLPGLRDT

[2] = target: T1, human TREM2 (triggering receptor expressed on myeloid cells 2) (human); test: 2nd screen, 10 nM Ab
[3] = target: T1, human TREM2 (triggering receptor expressed on myeloid cells 2) (human); test: 2nd screen, 2 nM Ab

B1: 6E7 antibody affinity modulation variant V89 (antibody, V domains shown)
VH: EVQLVQSGAEVKKPGESLKISCKGSGYSFTSYWIAWVRQMPGKGLEWMGIIYPGDSDTRYSPSFQGQVTISADKSISTAYLQWSSLKASDTAMYFCARQRTFYYDSSDYFDYWGQGTLVTVSS
VL: DIQMTQSPSSVSASVGDRVTITCRASQGISSWLAWYQQKPGKAPKLLIYAASSLQNGVPSRFSGSGSGTDFTLTISSLQPEDFATYFCQQADSHPRTFGQGTKLEIK
B1 was tested, and the Binding Signal (fold over 6E7 parental antibody) [1] was 1.33 fold, the Binding Signal (fold over 6E7 parental antibody) [2] was 1.46 fold and the Binding Signal (fold over 6E7 parental antibody) [3] was 0.94 fold.

B2: 6E7 antibody affinity modulation variant V28 (antibody, V domains shown)
VH: EVQLVQSGAEVKKPGESLKISCKGSGYSFQSYWIAWVRQMPGKGLEWMGTIYPGDSDTRYSPSFQGQVTISADKSISTAYLQWSSLKASDTAMYFCARQRTFFYDSSDYFDYWGQGTLVTVSS
VL: DIQMTQSPSSVSASVGDRVTITCRASQGISSWLAWYQQKPGKAPKLLIYAASSLQSGVPSRFSGSGSGTDFTLTISSLQPEDFATYFCQQADSLPRTFGQGTKLEIK
B2 gave a Binding Signal (fold over 6E7 parental antibody) [1] of 3.08 fold, a Binding Signal (fold over 6E7 parental antibody) [2] of 3.61 fold and a Binding Signal (fold over 6E7 parental antibody) [3] of 2.63 fold.

B3: 6E7 antibody affinity modulation variant V15 (antibody, V domains shown)
VH: EVQLVQSGAEVKKPGESLKISCKGSGYSFASYWIAWVRQMPGKGLEWMGTIYPGDSDTRYSPSFQGQVTISADKSISTAYLQWSSLKASDTAMYFCARSRTFYYDSSDYFDYWGQGTLVTVSS
VL: DIQMTQSPSSVSASVGDRVTITCRASQGISSWLAWYQQKPGKAPKLLIYAASWLQNGVPSRFSGSGSGTDFTLTISSLQPEDFATYFCQQADSYPRTFGQGTKLEIK
Work on B3 yielded a Binding Signal (fold over 6E7 parental antibody) [1] of 5.23 fold, a Binding Signal (fold over 6E7 parental antibody) [2] of 4.78 fold and a Binding Signal (fold over 6E7 parental antibody) [3] of 4.72 fold.

B4: 6E7 antibody affinity modulation variant V17 (antibody, V domains shown)
VH: EVQLVQSGAEVKKPGESLKISCKGSGYSFGSYWIAWVRQMPGKGLEWMGIIYPGDSDTRYSPSFQGQVTISADKSISTAYLQWSSLKASDTAMYFCARSRTFYYDSSDYFDYWGQGTLVTVSS
VL: DIQMTQSPSSVSASVGDRVTITCRASQGISSWLAWYQQKPGKAPKLLIYAASSRQNGVPSRFSGSGSGTDFTLTISSLQPEDFATYFCQQADSSPRTFGQGTKLEIK
In the case of B4, the Binding Signal (fold over 6E7 parental antibody) [1] is reported as 5.37 fold, the Binding Signal (fold over 6E7 parental antibody) [2] is reported as 5.51 fold and the Binding Signal (fold over 6E7 parental antibody) [3] is reported as 4.22 fold.

B5: 6E7 antibody affinity modulation variant V13 (antibody, V domains shown)
VH: EVQLVQSGAEVKKPGESLKISCKGSGYSFGSYWIAWVRQMPGKGLEWMGIIYPGDSDTRYSASFQGQVTISADKSISTAYLQWSSLKASDTAMYFCARGRTFYYDSSDYFDYWGQGTLVTVSS
VL: DIQMTQSPSSVSASVGDRVTITCRASQGISSWLAWYQQKPGKAPKLLIYAASSLQGGVPSRFSGSGSGTDFTLTISSLQPEDFATYFCQQADSMPRTFGQGTKLEIK
B5 showed a Binding Signal (fold over 6E7 parental antibody) [1] of 1.31 fold, a Binding Signal (fold over 6E7 parental antibody) [2] of 1.35 fold and a Binding Signal (fold over 6E7 parental antibody) [3] of 1.15 fold.

B6: 6E7 antibody affinity modulation variant V29 (antibody, V domains shown)
VH: EVQLVQSGAEVKKPGESLKISCKGSGYSFKSYWIAWVRQMPGKGLEWMGIIYPGDSDTRYSPSFQGQVTISADKSISTAYLQWSSLKASDTAMYFCARQRTFYYDSSDYFDYWGQGTLVTVSS
VL: DIQMTQSPSSVSASVGDRVTITCRASQGISSWLAWYQQKPGKAPKLLIYAASSLQNGVPSRFSGSGSGTDFTLTISSLQPEDFATYFCQQADSFPRTFGQGTKLEIK
Binder B6 has a Binding Signal (fold over 6E7 parental antibody) [1] of 1.53 fold, a Binding Signal (fold over 6E7 parental antibody) [2] of 1.67 fold and a Binding Signal (fold over 6E7 parental antibody) [3] of 0.84 fold.

B7: 6E7 antibody affinity modulation variant V4 (antibody, V domains shown)
VH: EVQLVQSGAEVKKPGESLKISCKGSGYSFGSYWIAWVRQMPGKGLEWMGIIYPGDSDTRVSPSFQGQVTISADKSISTAYLQWSSLKASDTAMYFCARSRTFYYDSSDYFDYWGQGTLVTVSS
VL: DIQMTQSPSSVSASVGDRVTITCRASQGISSWLAWYQQKPGKAPKLLIYAASRLQNGVPSRFSGSGSGTDFTLTISSLQPEDFATYFCQQADSYPRTFGQGTKLEIK
B7 showed a Binding Signal (fold over 6E7 parental antibody) [1] of 6 fold, a Binding Signal (fold over 6E7 parental antibody) [2] of 5.51 fold and a Binding Signal (fold over 6E7 parental antibody) [3] of 5.88 fold.

B8: 6E7 antibody affinity modulation variant V24 (antibody, V domains shown)
VH: EVQLVQSGAEVKKPGESLKISCKGSGYSFTSYWIAWVRQMPGKGLEWMGIIYPGDSDVRYSPSFQGQVTISADKSISTAYLQWSSLKASDTAMYFCARSRTFYYDSSDYFDYWGQGTLVTVSS
VL: DIQMTQSPSSVSASVGDRVTITCRASQGISSWLAWYQQKPGKAPKLLIYAASSLQKGVPSRFSGSGSGTDFTLTISSLQPEDFATYFCQQADSFPHTFGQGTKLEIK
For B8, the Binding Signal (fold over 6E7 parental antibody) [1] was 2.64 fold, the Binding Signal (fold over 6E7 parental antibody) [2] was 2.9 fold and the Binding Signal (fold over 6E7 parental antibody) [3] was 1.42 fold.

B9: 6E7 antibody affinity modulation variant V25 (antibody, V domains shown)
VH: EVQLVQSGAEVKKPGESLKISCKGSGYSFGSYWIAWVRQMPGKGLEWMGLIYPGDSDTRYSPSFQGQVTISADKSISTAYLQWSSLKASDTAMYFCARSRTFYYDSSDYFDYWGQGTLVTVSS
VL: DIQMTQSPSSVSASVGDRVTITCRASQGISSWLAWYQQKPGKAPKLLIYAASSLANGVPSRFSGSGSGTDFTLTISSLQPEDFATYFCQQADSMPRTFGQGTKLEIK
Work on B9 yielded a Binding Signal (fold over 6E7 parental antibody) [1] of 4.23 fold, a Binding Signal (fold over 6E7 parental antibody) [2] of 4.7 fold and a Binding Signal (fold over 6E7 parental antibody) [3] of 3.15 fold.

B10: 6E7 antibody affinity modulation variant V26 (antibody, V domains shown)
VH: EVQLVQSGAEVKKPGESLKISCKGSGYSFTSYWIGWVRQMPGKGLEWMGTIYPGDSDTRYSPSFQGQVTISADKSISTAYLQWSSLKASDTAMYFCARQRTMYYDSSDYFDAWGQGTLVTVSS
VL: DIQMTQSPSSVSASVGDRVTITCRASQGISSWLAWYQQKPGKAPKLLIYAASSLQRGVPSRFSGSGSGTDFTLTISSLQPEDFATYFCQQADSYPRTFGQGTKLEIK
Work on B10 yielded a Binding Signal (fold over 6E7 parental antibody) [1] of 3.57 fold, a Binding Signal (fold over 6E7 parental antibody) [2] of 3.47 fold and a Binding Signal (fold over 6E7 parental antibody) [3] of 2.83 fold.

B11: 6E7 antibody affinity modulation variant V16 (antibody, V domains shown)
VH: EVQLVQSGAEVKKPGESLKISCKGSGYSMTSYWIAWVRQMPGKGLEWMGIIYPGDGDTRYSPSFQGQVTISADKSISTAYLQWSSLKASDTAMYFCARSRTFYYDSSDYFDYWGQGTLVTVSS
VL: DIQMTQSPSSVSASVGDRVTITCRASQGISSWLAWYQQKPGKAPKLLIYAASNLQNGVPSRFSGSGSGTDFTLTISSLQPEDFATYFCQQADSFPRTFGQGTKLEIK
For B11, the Binding Signal (fold over 6E7 parental antibody) [1] was 4.01 fold, the Binding Signal (fold over 6E7 parental antibody) [2] was 4.04 fold and the Binding Signal (fold over 6E7 parental antibody) [3] was 3.57 fold.

B12: 6E7 antibody affinity modulation variant V27 (antibody, V domains shown)
VH: EVQLVQSGAEVKKPGESLKISCKGSGYSFTSYWIAWVRQMPGKGLEWMGIIYPGDSDTRYAPSFQGQVTISADKSISTAYLQWSSLKASDTAMYFCVRSRTFYYDSSDYFDYWGQGTLVTVSS
VL: DIQMTQSPSSVSASVGDRVTITCRASQGISSWLAWYQQKPGKAPKLLIYAASSLQRGVPSRFSGSGSGTDFTLTISSLQPEDFATYFCQQADSFPRTFGQGTKLEIK
Work on B12 yielded a Binding Signal (fold over 6E7 parental antibody) [1] of 5.5 fold, a Binding Signal (fold over 6E7 parental antibody) [2] of 5.69 fold and a Binding Signal (fold over 6E7 parental antibody) [3] of 5.67 fold.

B13: 6E7 antibody affinity modulation variant V14 (antibody, V domains shown)
VH: EVQLVQSGAEVKKPGESLKISCKGSGYSFGSYWIAWVRQMPGKGLEWMGIIYPGDQDTRYSPSFQGQVTISADKSISTAYLQWSSLKASDTAMYFCARGRTFYYDSSDYFDYWGQGTLVTVSS
VL: DIQMTQSPSSVSASVGDRVTITCRASQGISSWLAWYQQKPGKAPKLLIYAASRLQNGVPSRFSGSGSGTDFTLTISSLQPEDFATYFCQQADSFPRTFGQGTKLEIK
In the case of B13, the Binding Signal (fold over 6E7 parental antibody) [1] is reported as 4.71 fold, the Binding Signal (fold over 6E7 parental antibody) [2] is reported as 4.64 fold and the Binding Signal (fold over 6E7 parental antibody) [3] is reported as 2.57 fold.

B14: 6E7 antibody affinity modulation variant V5 (antibody, V domains shown)
VH: EVQLVQSGAEVKKPGESLKISCKGSGYSFTSYWIAWVRQMPGKGLEWMGTIYPGDSDTRYSPSFQGQVTISADKSISTAYLQWSSLKASDTAMYFCARQRTFYYDSSDYFDYWGQGTLVTVSS
VL: DIQMTQSPSSVSASVGDRVTITCRASQGISSWLAWYQQKPGKAPKLLIYAASSLQNGVPSRFSGSGSGTDFTLTISSLQPEDFATYFCQQADSHPRTFGQGTKLEIK
B14 was tested, and the Binding Signal (fold over 6E7 parental antibody) [1] was 2.73 fold, the Binding Signal (fold over 6E7 parental antibody) [2] was 2.84 fold and the Binding Signal (fold over 6E7 parental antibody) [3] was 1.25 fold.
